Legend:
[1] = molecular target: T1, αvβ5 integrin on HT-29 human colon carcinoma cells (human, UniProt P06756 31-1048; P18084 24-799); assay: 125-I antibody saturation binding to HT-29 cells
T1 construct: whole, on cells; also called HT-29 cells; HT29 cells
Protocol: (§1) Cells were plated 2 days prior to experiment, and 1×10⁵ cells/well at the time of study. […] Nonspecific binding was determined using 100× cold mAb in media. Cells were washed 3× and counted for bound radioactivity. Each curve represents 4-5 separate studies, and each data point in an experiment was the mean of triplicate samples.

[2] = molecular target: T2, human αVβ3 integrin, purified (human, UniProt P06756 31-1048; P05106 27-788); assay: EIA, purified antibody titrated on αVβ3 coated plates
T2 construct: mature; Detergent-extracted heterodimer purified from human placenta at Centocor, or bought from Chemicon; coated on plates or in solution; also called alphaVbeta3; aVb3

[3] = molecular target: T3, human αVβ5 integrin, purified (human, UniProt P06756 31-1048; P18084 24-799); assay: comparison of the KD values on integrin coated plates
T3 construct: Bought from Chemicon (Triton or octyl formulation); also called alphaVbeta5; aVb5

[4] = molecular target: T1, αvβ5 integrin on HT-29 human colon …; assay: 125-I antibody saturation binding to HT-29 cells, n = 5
Protocol: as §1

[5] = molecular target: T1, αvβ5 integrin on HT-29 human colon …; assay: 125-I antibody saturation binding to HT-29 cells, rounded value
Protocol: as §1

[6] = molecular target: T2, human αVβ3 integrin, purified; assay: saturation binding ELISA on αvβ3 coated plate, non-linear fit, n = 6
Protocol: (§2) αᵥβ₃ or αᵥβ₅ integrin was diluted to 1 μg/ml in Tris-buffered saline (TBS, 10 mM Tris, 100 mM NaCl, pH 7.5) containing 2 mM calcium chloride (TBS/Ca⁺⁺) and coated at 50 μl per well onto 96 well polystyrene Linbro plates (Flow/ICN) overnight at 4° C. Plates were washed with TBS/Ca⁺⁺ and blocked with 1% bovine serum albumin (BSA) in TBS/Ca⁺⁺ for 1 h at room temperature. Fifty microliters of diluted antibody was added in triplicate to coated wells and incubated for 2 h at 37° C. […] Plates were washed three times, and developed with o-phenylenediamine dihydrochloride substrate solution (OPD, Sigma) consisting of 0.1 M citric acid, 0.2M sodium phosphate, 0.01% H₂O₂ and 1 mg/ml OPD. Color development was stopped after 15 min at room temperature with 0.3 N H₂SO₄, and plates were read at OD₄₉₀ nm in the Molecular Dynamics plate reader.

[7] = molecular target: T3, human αVβ5 integrin, purified; assay: saturation binding ELISA on αvβ5 coated plate, non-linear fit, n = 6
Protocol: as §2

[8] = molecular target: T4, integrin aIIbb3 from human placenta extract (human, UniProt P08514 32-1039; P05106 27-788); assay: CNTO 95 affinity column on human placenta extract, Western blot with anti-aIIb
T4 construct: mature; only the aIIb subunit was probed; also called aIIbβ3; GPIIb/IIIa
Protocol: (§3) Western blot. […] The filters were blocked with 5% nonfat dry milk in TBS containing 0.05% Tween 20 (wash buffer) at room temperature for 1 hour and then incubated with anti-integrin antibodies (anti-a5 (P-19) Santa Cruz, goat polyclonal IgG 1:500 dilution; anti-aIIb, Chemicon, mouse monoclonal IgG1, 1:1000 dilution; anti-αV (Q-20), Santa Cruz, goat polyclonal IgG, 1:500 dilution; anti-b1 (4B7R), Santa Cruz, mouse monoclonal IgG1, 1:500 dilution; anti-b1 (N-20), Santa Cruz, goat polyclonal IgG, 1:500 dilution; anti-β3 (H-96), Santa Cruz, rabbit polyclonal IgG, 1:500 dilution; anti-β5 (H-96), Santa Cruz, rabbit polyclonal IgG, 1:500 dilution; anti-β6 (H-110), Santa Cruz, rabbit polyclonal IgG, 1:250 dilution). After thorough washing, filters were incubated with appropriate peroxidase-conjugated secondary antibodies (1:20000 dilution). The antigen-antibody complexes were visualized using SuperSignal West Pico Chemiluminescent Substrate kit (Pierce).

[9] = molecular target: T3, human αVβ5 integrin, purified; assay: saturation binding ELISA on αvβ5 coated plate, non-linear fit, six experiments
Protocol: as §2

[10] = molecular target: T5, integrin a5b1 from human placenta extract (human, UniProt P08648 42-1049; P05556 21-798); assay: CNTO 95 affinity column on human placenta extract, Western blot with anti-integrin a5
T5 construct: mature; only the a5 subunit was probed; also called a5 containing heterodimers
T5 sequence (P08648 42-1049, chain 1 of 2): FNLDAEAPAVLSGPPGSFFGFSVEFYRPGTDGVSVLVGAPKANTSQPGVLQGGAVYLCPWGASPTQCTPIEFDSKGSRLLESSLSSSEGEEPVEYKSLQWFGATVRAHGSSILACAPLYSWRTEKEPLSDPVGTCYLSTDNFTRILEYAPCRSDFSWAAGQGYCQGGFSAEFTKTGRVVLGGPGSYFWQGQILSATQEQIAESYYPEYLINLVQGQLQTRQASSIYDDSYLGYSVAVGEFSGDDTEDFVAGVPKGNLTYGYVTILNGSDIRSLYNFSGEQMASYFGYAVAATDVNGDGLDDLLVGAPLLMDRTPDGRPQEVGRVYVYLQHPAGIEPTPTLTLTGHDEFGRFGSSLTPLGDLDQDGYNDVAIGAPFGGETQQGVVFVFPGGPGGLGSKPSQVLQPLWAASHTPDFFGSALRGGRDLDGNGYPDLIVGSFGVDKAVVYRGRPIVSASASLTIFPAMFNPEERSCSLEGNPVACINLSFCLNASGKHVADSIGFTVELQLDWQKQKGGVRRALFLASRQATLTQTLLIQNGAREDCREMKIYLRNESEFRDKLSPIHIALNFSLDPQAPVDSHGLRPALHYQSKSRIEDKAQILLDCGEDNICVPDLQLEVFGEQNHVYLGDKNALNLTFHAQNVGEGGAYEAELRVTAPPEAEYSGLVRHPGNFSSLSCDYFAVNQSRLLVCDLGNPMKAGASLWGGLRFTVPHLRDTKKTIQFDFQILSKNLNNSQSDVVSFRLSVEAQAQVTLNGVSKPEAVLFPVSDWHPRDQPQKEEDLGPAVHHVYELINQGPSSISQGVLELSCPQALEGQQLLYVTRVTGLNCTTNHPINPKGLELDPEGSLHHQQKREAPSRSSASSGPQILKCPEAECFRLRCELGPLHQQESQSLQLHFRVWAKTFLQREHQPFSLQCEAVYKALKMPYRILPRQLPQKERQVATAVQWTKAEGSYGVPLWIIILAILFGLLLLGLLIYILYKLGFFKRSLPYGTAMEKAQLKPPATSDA
T5 sequence (P05556 21-798, chain 2 of 2): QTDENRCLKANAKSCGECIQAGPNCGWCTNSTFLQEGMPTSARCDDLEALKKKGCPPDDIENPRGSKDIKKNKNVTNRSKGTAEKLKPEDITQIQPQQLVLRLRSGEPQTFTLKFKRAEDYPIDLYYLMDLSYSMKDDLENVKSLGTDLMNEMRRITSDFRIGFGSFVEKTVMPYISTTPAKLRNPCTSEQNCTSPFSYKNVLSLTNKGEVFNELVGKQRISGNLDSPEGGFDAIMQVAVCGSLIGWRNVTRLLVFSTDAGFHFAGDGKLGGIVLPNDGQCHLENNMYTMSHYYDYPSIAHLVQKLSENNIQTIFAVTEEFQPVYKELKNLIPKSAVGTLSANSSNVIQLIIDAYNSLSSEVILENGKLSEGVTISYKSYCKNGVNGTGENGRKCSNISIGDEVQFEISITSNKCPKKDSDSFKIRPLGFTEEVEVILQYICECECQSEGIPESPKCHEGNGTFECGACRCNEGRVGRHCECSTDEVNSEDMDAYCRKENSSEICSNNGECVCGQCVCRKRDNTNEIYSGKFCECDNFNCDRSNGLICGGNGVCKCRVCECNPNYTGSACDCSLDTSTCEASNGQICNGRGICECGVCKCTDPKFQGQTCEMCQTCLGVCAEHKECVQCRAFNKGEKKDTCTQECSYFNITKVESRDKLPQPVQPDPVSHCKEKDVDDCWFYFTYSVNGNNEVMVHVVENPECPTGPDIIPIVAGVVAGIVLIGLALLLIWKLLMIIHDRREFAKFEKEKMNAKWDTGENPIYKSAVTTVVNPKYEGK
Protocol: as §3

T1 sequence (P06756 31-1048, chain 1 of 2): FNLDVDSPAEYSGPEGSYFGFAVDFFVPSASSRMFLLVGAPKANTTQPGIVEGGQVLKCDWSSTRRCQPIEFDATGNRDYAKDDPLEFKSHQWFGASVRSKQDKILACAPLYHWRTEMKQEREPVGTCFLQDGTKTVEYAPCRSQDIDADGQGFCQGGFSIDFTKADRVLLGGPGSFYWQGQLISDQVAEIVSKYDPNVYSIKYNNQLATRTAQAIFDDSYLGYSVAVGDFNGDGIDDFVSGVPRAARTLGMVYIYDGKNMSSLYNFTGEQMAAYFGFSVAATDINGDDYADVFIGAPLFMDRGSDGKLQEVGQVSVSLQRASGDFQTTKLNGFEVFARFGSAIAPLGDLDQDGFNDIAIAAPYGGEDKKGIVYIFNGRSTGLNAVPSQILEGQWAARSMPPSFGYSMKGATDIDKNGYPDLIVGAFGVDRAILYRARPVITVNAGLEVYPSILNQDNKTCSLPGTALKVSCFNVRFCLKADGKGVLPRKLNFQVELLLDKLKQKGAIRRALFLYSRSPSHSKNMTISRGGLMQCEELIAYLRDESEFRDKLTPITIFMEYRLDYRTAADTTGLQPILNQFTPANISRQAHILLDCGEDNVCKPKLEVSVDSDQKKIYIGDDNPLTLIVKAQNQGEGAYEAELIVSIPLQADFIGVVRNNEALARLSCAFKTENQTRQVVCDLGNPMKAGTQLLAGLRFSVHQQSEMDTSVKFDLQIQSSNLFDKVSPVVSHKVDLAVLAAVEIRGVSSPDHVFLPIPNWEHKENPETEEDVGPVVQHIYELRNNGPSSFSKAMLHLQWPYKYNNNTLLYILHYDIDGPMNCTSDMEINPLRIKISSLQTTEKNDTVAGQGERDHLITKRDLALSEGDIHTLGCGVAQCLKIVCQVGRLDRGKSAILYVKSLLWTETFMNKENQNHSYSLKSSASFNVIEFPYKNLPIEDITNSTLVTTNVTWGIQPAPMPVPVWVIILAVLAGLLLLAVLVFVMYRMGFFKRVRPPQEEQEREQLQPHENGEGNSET
T1 sequence (P18084 24-799, chain 2 of 2): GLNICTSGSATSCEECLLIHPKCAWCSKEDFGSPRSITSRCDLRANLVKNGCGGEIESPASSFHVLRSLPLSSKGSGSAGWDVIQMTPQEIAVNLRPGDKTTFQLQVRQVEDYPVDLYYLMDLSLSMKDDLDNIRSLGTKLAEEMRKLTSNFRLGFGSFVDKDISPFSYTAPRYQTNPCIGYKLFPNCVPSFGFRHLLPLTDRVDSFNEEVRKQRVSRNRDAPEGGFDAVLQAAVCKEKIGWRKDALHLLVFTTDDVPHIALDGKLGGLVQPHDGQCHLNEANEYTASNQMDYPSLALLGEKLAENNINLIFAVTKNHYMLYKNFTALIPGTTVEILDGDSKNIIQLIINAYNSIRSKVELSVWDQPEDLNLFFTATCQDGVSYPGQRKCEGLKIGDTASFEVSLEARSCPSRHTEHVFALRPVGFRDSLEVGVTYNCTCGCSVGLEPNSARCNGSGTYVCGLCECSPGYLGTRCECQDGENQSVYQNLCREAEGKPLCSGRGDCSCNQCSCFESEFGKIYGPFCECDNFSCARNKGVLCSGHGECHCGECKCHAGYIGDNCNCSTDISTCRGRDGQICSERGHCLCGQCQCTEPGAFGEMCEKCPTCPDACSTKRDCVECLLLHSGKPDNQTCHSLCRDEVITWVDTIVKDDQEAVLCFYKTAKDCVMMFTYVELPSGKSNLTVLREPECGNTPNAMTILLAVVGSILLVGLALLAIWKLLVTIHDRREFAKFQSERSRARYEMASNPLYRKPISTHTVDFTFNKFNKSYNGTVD
T3 sequence (P06756 31-1048, form in doubt, chain 1 of 2): as the sequence (P06756 31-1048, chain 1 of 2) above
T3 sequence (P18084 24-799, form in doubt, chain 2 of 2): as the sequence (P18084 24-799, chain 2 of 2) above
T2 sequence (P06756 31-1048, form in doubt, chain 1 of 2): as the sequence (P06756 31-1048, chain 1 of 2) above
T2 sequence (P05106 27-788, form in doubt, chain 2 of 2): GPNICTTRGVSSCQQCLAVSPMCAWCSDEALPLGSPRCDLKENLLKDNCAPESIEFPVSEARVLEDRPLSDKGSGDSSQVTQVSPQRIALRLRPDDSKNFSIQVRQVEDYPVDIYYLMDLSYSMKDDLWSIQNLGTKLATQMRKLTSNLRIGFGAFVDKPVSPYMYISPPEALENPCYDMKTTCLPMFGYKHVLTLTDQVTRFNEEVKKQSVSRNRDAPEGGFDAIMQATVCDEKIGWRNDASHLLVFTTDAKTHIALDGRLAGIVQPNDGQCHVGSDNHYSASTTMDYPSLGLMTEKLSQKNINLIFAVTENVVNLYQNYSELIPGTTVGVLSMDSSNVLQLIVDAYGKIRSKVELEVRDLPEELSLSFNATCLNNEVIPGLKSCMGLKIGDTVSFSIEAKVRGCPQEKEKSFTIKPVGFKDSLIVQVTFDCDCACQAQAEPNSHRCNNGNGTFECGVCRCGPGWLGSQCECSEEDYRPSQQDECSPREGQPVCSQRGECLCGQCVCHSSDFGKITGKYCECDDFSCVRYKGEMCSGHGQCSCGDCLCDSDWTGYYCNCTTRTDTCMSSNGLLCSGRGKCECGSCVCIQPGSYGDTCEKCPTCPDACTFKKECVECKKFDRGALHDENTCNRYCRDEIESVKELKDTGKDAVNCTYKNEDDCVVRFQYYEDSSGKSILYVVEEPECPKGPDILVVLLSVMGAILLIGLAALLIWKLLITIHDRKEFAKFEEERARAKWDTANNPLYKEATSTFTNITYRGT

- Kd [1]: 0.13 nM
- EC50 [2]: 0.7 µg/mL
- fold higher affinity than for αvβ3 purified integrin [3]: ~8 fold
- Kd [4]: 1.3 nM
- Kd [5]: 1 nM
- Kd [6]: 0.21 nM
- Kd [7]: 0.25 nM
- binding result [8]: no binding
- Kd [9]: 0.025 nM
- binding result [10]: no binding
B1: CNTO 95 (antibody, V domains shown)
VH: QVQLVESGGGVVQPGRSRRLSCAASGFTFSRYTMHWVRQAPGKGLEWVAVISFDGSNKYYVDSVKGRFTISRDNSENTLYLQVNILRAEDTAVYYCAREARGSYAFDIWGQGTMVTVSS
VL: EIVLTQSPATLSLSPGERATLSCRASQSVSSYLAWYQQKPGQAPRLLIYDASNRATGIPARFSGSGSGTDFTLTISSLEPEDFAVYYCQQRSNWPPFTFGPGTKVDIK
notes: Fully human IgG1 kappa from a transgenic mouse hybridoma; also called GenO95; C371A

From patent publication US20090191117A1 (published 2009)
